Among the data in patent publication US20220145291A1 are apoptosis in Jurkat cells, flow cytometry (Annexin V); SA-FasL tethered on exosomes, 1 µg exosome protein and apoptosis in Jurkat cells, flow cytometry (Annexin V); SA-FasL tethered on exosomes, 20 µg exosome protein values, retold here.

The assay has as its target FasR on T-cells (Jurkat cells) (UniProt P25445). The assay can be described thus: cell-based or functional assay.

Chain of FasR on T-cells (Jurkat cells) (P25445 26-335 limits assumed): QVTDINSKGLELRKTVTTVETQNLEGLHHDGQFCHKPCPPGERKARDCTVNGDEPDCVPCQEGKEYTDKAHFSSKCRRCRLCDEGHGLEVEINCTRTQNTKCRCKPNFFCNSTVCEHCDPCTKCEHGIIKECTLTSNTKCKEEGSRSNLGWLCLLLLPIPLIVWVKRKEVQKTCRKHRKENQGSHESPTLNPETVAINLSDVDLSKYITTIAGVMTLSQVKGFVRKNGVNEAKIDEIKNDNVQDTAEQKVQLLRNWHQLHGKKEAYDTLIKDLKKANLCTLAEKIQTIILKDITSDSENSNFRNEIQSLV
Chain of streptavidin-FasL (P22629 37-163): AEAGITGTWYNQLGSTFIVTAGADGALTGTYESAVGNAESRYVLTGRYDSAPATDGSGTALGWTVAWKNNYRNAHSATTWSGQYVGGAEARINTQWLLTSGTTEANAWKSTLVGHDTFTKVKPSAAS

In turn, “streptavidin-FasL (from UniProt P22629 37-163) (ligand)” returned an apoptosis in Jurkat cells, flow cytometry (Annexin V); SA-FasL tethered on exosomes, 1 µg exosome protein of 17.5% and an apoptosis in Jurkat cells, flow cytometry (Annexin V); SA-FasL tethered on exosomes, 20 µg exosome protein of 99.3%.
